In US20260201030A1, “ANTIBODY, ANTIBODY-DRUG CONJUGATE THEREOF AND USE THEREOF” (EVOPOINT BIOSCIENCES CO., LTD., priority 2021, published 2026):

Key:
human Claudin18.2 [1] = target: T1, human Claudin18.2 (Homo sapiens, UniProt P56856); assay: Cell-based ELISA affinity of humanized antibodies on L929-Claudin18.2 (human) cells; type: binding; details: L929-Claudin18.2 cells
T1 construct: expressed in transfected cells

human Claudin18.2 [2] = target: T1, human Claudin18.2; assay: Cell-based ELISA affinity of humanized antibodies on HEK293T-Claudin18.2 (human) cells; type: binding; details: HEK293T-Claudin18.2 cells
Experimental: The affinity of the anti-human Claudin18.2 murine monoclonal antibodies was evaluated by cell-based ELISA. The experimental procedures were as follows: The day before the experiment, HEK293T-Claudin18.2 (human) cells were plated in a 96-well plate at 5×10^4 cells/well. On the day of the experiment, the supernatant was removed, the cells in each well were washed once with 300 μL of PBS, and 100 μL of 4% paraformaldehyde was added to each well for fixation at room temperature for 20 min. Paraformaldehyde was then removed, and the cells in each well were washed twice with 300 μL of PBS. 100 μL of 2% BSA (in PBS) was added to each well, and the mixture was blocked at 37° C. for 2 h. After removing the blocking solution, each antibody subjected to gradient dilution (diluted with 2% BSA (in PBS), starting at […], in a 3-fold gradient, for a total of 11 concentration points) was added to the plate at 100 μL/well, and the mixture was incubated at 37° C. for 2 h. The supernatant was removed, and the cells in each well were washed three times with 300 μL of PBST. 100 μL of an anti-mouse IgG HRP secondary antibody (Jackson, cat #115-035-003) in 2% BSA was added to each well, and the mixture was incubated at 37° C. for 1 h. The secondary antibody was then removed, and the cells in each well were washed five times with 300 μL of PBST, followed by the addition of 100 μL of a TMB substrate (Huzhou InnoReagents Co., Ltd.) per well for color development for 5-20 min. The reaction was stopped by adding 50 μL of 2 N HCl to each well, and OD450 nm values were read on a microplate reader (manufacturer: MD, model: SpectraMax). The values obtained were plotted by GraphPad Prism to calculate the EC50 value.
The affinity of the anti-human Claudin18.2 humanized monoclonal antibodies was determined by cell-based ELISA. The cell-based ELISA was conducted as described in Example I-3.

human Claudin18.2 [3] = target: T1, human Claudin18.2; assay: Cell-based ELISA affinity on NUGC4 cells endogenously expressing human Claudin18.2; type: binding
human Claudin18.2 [4] = target: T1, human Claudin18.2; assay: Cell-based FACS affinity on HEK293T-Claudin18.2 (human) cells; type: binding
Experimental: The affinity of the anti-human Claudin18.2 humanized antibodies was detected by flow cytometry. The experimental procedures were as follows: The adherent cultured HEK293T-Claudin18.2 (human), NUGC4-Claudin18.2 (human) and NUGC4 cells were digested, collected by centrifugation, and washed three times with pre-cooled PBS. The cells were resuspended in 1% BSA (in PBS) and added to a 96-well pointed bottom plate at 3×10^5 cells/well, with a volume of 50 μL per well. Each test antibody was diluted with 1% BSA (in PBS) (starting at 100 μg/mL, diluted in a 3-fold gradient, for 10 concentration points). The test antibody subjected to gradient dilution was added to the cells at 50 μL/well, and the mixture was well mixed and incubated at 4° C. for 1 h. The cells were collected by centrifugation, washed three times with pre-cooled PBS, and resuspended in 50 μL of 1% BSA (in PBS). 1 μL of a fluorescent secondary antibody (Biolegend-410712) was added to each well, and the mixture was well mixed and incubated at 4° C. for 0.5 h. The cells were collected by centrifugation, washed three times with pre-cooled PBS, resuspended in 200 μL of PBS, and assayed on a machine.

[5] = tested on: cynomolgus monkey Claudin18.2; assay: FACS species affinity on HEK293T-Claudin18.2 (cynomolgus monkey) cells; type: binding; details: cell-based FACS
Experimental: The affinity of the anti-human Claudin18.2 humanized monoclonal antibodies for Claudin18.2 of different species was determined by flow cytometry (FACS). The experimental procedures were as follows: HEK293T-Claudin18.2 (cynomolgus monkey) cells, HEK293T-Claudin18.2 (mouse) cells and HEK293T-Claudin18.2 (rat) cells were digested, collected by centrifugation, washed three times with pre-cooled PBS, resuspended in 1% BSA (in PBS), and added to a 96-well pointed bottom plate at 3×10^5 cells/well. Each antibody subjected to gradient dilution was added, and the mixture was incubated at 4° C. for 1 h. The cells were washed three times with pre-cooled PBS, and then 1 μL of a fluorescent secondary antibody (APC: Biolegend-410712) was added to each well. The mixture was incubated at 4° C. for 0.5 h, and the cells were washed three times with pre-cooled PBS, then resuspended, and assayed on a flow cytometer.

human Claudin18.1 = target: T2, human Claudin18.1 (Homo sapiens, UniProt P56856); assay: FACS specificity of humanized antibodies on HEK293T-Claudin18.1 (human) cells; type: binding; details: antibody 50 μg/mL, APC secondary antibody
T2 construct: expressed in transfected cells
Experimental: The specificity of the anti-human Claudin18.2 humanized monoclonal antibodies was determined by flow cytometry (FACS). The experimental procedures were as follows: HEK293T-Claudin18.1 (human) cells were digested, collected by centrifugation, washed three times with pre-cooled PBS, resuspended in 1% BSA (in PBS), and added to a 96-well pointed bottom plate at 3×10^5 cells/well. Each test antibody with a final concentration of 50 μg/mL was added, and the mixture was incubated at 4° C. for 1 h. The cells were washed three times with pre-cooled PBS, and then 1 μL of a fluorescent secondary antibody (APC: Biolegend-410712 or PE: BioLegend-410708) was added to each well. The mixture was incubated at 4° C. for 0.5 h, and the cells were washed three times with pre-cooled PBS, then resuspended, and assayed on a flow cytometer. For reference, anti-human Claudin18.1 positive control antibodies (positive control antibody-1 and positive control antibody-2) were included in the experiment.

[6] = tested on: HEK293T-Claudin18.2 (human) cells; assay: ADCC activity, fluorescein reporter system (Jurkat-NFAT-CD16a); type: cell-based; details: HEK293T-Claudin18.2 (human) target cells, 5 h
Experimental: ADCC activity of the anti-human Claudin18.2 humanized monoclonal antibodies was detected by a fluorescein reporter system. The experiment was carried out using a Rhinogen® Bio-Glory One-Step Firefly Luciferase Assay kit (Suzhou Rhino Bio, RA-GL04), following the manufacturer's instructions. The experimental procedures were as follows: HEK293T-Claudin18.2 (human) cells were digested, collected by centrifugation, resuspended in DMEM+1% FBS, and then plated at 50000 cells/well. Jurkat-NFAT-CD16a cells were collected by centrifugation and resuspended in 1640+1% FBS, and then plated at 100000 cells/well. Each test antibody subjected to gradient dilution was added, and the mixture was incubated at 37° C. for 5 h. 50 μL of a Bio-Glory One-Step luciferase substrate was added to each well, and readings were taken on a microplate reader (MD, SpectraMax i3x).

[7] = tested on: HEK293T-Claudin18.2 (human) cells; assay: CDC activity, guinea pig serum killing experiment; type: cell-based; details: 20% guinea pig serum, 5 h
Experimental: CDC activity of the anti-human Claudin18.2 humanized monoclonal antibodies was detected by a guinea pig serum killing experiment. The experimental procedures were as follows: HEK293T-Claudin18.2 (human) cells were digested, collected by centrifugation, plated at 50000 cells/well, and incubated overnight. The supernatant was discarded, and 100 μL of each test antibody subjected to gradient dilution with DMEM+20% guinea pig serum (Beijing Bersee, BM361Y) was added to each well. The mixture was incubated at 37° C. for 5 h, and 20 μL of a CCK8 reagent (Suzhou Rhino Bio, QDY-003-D) was added to each well. The mixture was allowed to react for 1-4 h, and readings were taken at 450 nm on a microplate reader.

Affinity detected by cell-based ELISA (EC50, ng/mL) L929-Claudin18.2 (human Claudin18.2 [1]): 17.12 ± 0.85(N = 2) ng/mL
Affinity detected by cell-based ELISA (EC50, ng/mL) HEK293T-Claudin18.2 (human Claudin18.2 [2]): 12.67 ± 2.1(N = 2) ng/mL
NUCG4 EC50 (human Claudin18.2 [3]): 0.09518 µg/mL
NUCG4 Maximum signal value (human Claudin18.2 [3]; OD450): 0.316
HEK293T-Claudin18.2 EC50 (human Claudin18.2 [4]): 0.3687 µg/mL
HEK293T-Claudin18.2 Maximum signal value (human Claudin18.2 [4]): 132603
HEK293T-Claudin18.2 (cynomolgus monkey) EC50 [5]: 0.1719 µg/mL
Mean APC fluorescence signal value (human Claudin18.1): 281
Median APC fluorescence signal value (human Claudin18.1): 233
Positive rate (%) (human Claudin18.1): 0.69%
B1: 2D3A11-HZ1: humanized anti-Claudin18.2 antibody, VH SEQ ID NO: 38, VL SEQ ID NO: 39 (antibody, V domains shown)
VH: QVQLVQSGAEVKKPGASVKVSCKASGYTFTSYVVHWVRQAPGQGLEWMGYINPYNADSKYSQEFQGRATLTSDKSASTAYMELSSLRSEDMAVYYCSRSYYGNSFDVWGQGTLVTVSS
VL: DIVMTQSPDSLAVSLGERATINCKSSQSLLNSGNQKNYLTWYQQKPGQSPKLLFFWASTRQSGVPDRFSGSGSGTDFTLTISSLQAEDVAVYYCQNDYYFPFTFGQGTKVEIK
ADCC activity EC50 [6]: 0.04791 µg/mL
CDC activity EC50 [7]: 1.904 µg/mL
